Results as given in patent US12295987B2, “Method of using a GIP/GLP1 co-agonist for diabetes” (Eli Lilly and Company, priority 2018, dated 2025).
Numbered stars: 1 amine (or outer) side, 2 acyl side, 3 side chain; on linkers, the order of the positions; unused ones are H or OH. Square brackets hold non-standard residues; d marks the D form. Side chains are listed from the residue outwards. Ends that are not written are not given here. * marks the point of attachment. C20 diacid = O=C(O)CCCCCCCCCCCCCCCCCCC(=O)*; γGlu = O=C(O)[C@H](CCC(=O)[*:2])N[*:1]; AEEA = NCCOCCOCC(=O)O; Aib = CC(C)(N)C(=O)O

target: T1, human gastric inhibitory peptide receptor (hGIPR) (Homo sapiens, UniProt P48546); assay: cAMP pharmacological functional assay in presence of 0.1% casein, hGIPR; type: cell-based; settings: ratio of hGIPR to hGLP1R cAMP EC50 ratios
T1 construct: expressed in transfected cells; host or cells: HEK293
T1 sequence (P48546 22-466): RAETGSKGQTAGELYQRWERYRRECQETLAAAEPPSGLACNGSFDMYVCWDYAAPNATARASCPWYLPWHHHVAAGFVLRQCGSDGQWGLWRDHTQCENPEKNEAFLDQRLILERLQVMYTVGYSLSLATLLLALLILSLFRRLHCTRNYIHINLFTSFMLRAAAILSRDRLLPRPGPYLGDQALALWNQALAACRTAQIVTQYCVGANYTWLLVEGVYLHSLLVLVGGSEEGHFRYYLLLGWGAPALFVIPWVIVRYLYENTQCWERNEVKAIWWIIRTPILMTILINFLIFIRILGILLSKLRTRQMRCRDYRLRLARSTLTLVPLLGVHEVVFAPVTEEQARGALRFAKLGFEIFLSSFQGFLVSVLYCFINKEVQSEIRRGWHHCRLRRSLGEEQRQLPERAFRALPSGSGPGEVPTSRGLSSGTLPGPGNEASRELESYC

In order of falling “[hGIPR/hGLP1R] EC50 Ratio” value:
1. Y-Aib-EGTFTSDYSILLDKK((2-[2-(2-Amino-ethoxy)-ethoxy]-acetyl)2-(γGlu)-CO—(CH2)18—CO2H)AQ-Aib-AFI-(D-Glu)-YLIEGGPSSGAPPPS-NH2 (YXEGTFTSDYSILLDKKAQXAFIXYLIEGGPSSGAPPPS; Aib, D-Glu, lipidated Lys, C-terminal amide; (2)..(2) Xaa at position 2 is Aib; MOD_RES (17)..(17) Lys at position 17 is chemically modified by conjugation of the epsilon-amino group of the Lys side chain with (2-[2-(2-amino-ethoxy)-ethoxy]-acetyl)2-(gamma-Glu)-CO-(CH2)18- CO2H; (20)..(20) Xaa at position 20 is Aib; (24)..(24) Xaa at position 24 is D-Glu; MOD_RES (39)..(39) Ser at position 39 is amidated) [Peptide 84]  9.19
2. Y-Aib-EGTFTSDYSILLDKIAQ-Aib-K((2-[2-(2-Amino-ethoxy)-ethoxy]-acetyl)2-(γGlu)-CO—(CH2)18—CO2H)FIEYLIEGGPSSGAPPPS-NH2 (Y[Aib]EGTFTSDYSILLDKIAQ[Aib]K([AEEA-AEEA-γGlu-C20 diacid])FIEYLIEGGPSSGAPPPS-NH2; N-terminus assumed; SMILES CC[C@H](C)[C@H](NC(=O)[C@H](CCCCN)NC(=O)[C@H](CC(=O)O)NC(=O)[C@H](CC(C)C)NC(=O)[C@H](CC(C)C)NC(=O)[C@@H](NC(=O)[C@H](CO)NC(=O)[C@H](Cc1ccc(O)cc1)NC(=O)[C@H](CC(=O)O)NC(=O)[C@H](CO)NC(=O)[C@@H](NC(=O)[C@H](Cc1ccccc1)NC(=O)[C@@H](NC(=O)CNC(=O)[C@H](CCC(=O)O)NC(=O)C(C)(C)NC(=O)[C@@H](N)Cc1ccc(O)cc1)[C@@H](C)O)[C@@H](C)O)[C@@H](C)CC)C(=O)N[C@@H](C)C(=O)N[C@@H](CCC(N)=O)C(=O)NC(C)(C)C(=O)N[C@@H](CCCCNC(=O)COCCOCCNC(=O)COCCOCCNC(=O)CC[C@H](NC(=O)CCCCCCCCCCCCCCCCCCC(=O)O)C(=O)O)C(=O)N[C@@H](Cc1ccccc1)C(=O)N[C@H](C(=O)N[C@@H](CCC(=O)O)C(=O)N[C@@H](Cc1ccc(O)cc1)C(=O)N[C@@H](CC(C)C)C(=O)N[C@H](C(=O)N[C@@H](CCC(=O)O)C(=O)NCC(=O)NCC(=O)N1CCC[C@H]1C(=O)N[C@@H](CO)C(=O)N[C@@H](CO)C(=O)NCC(=O)N[C@@H](C)C(=O)N1CCC[C@H]1C(=O)N1CCC[C@H]1C(=O)N1CCC[C@H]1C(=O)N[C@@H](CO)C(N)=O)[C@@H](C)CC)[C@@H](C)CC) [Peptide 32]  6.18
3. Y-Aib-EGTFTSDYSILLDKK((2-[2-(2-Amino-ethoxy)-ethoxy]-acetyl)2-(γGlu)-CO—(CH2)18—CO2H)AQ-Aib-AFIEYLI-(D-Glu)-GGPSSGAPPPS-NH2 (YXEGTFTSDYSILLDKKAQXAFIEYLIXGGPSSGAPPPS; Aib, D-Glu; K lipidated C20 diacid-γGlu-AEEA2; C-terminal amide; (2)..(2) Xaa at position 2 is Aib; MOD_RES (17)..(17) Lys at position 17 is chemically modified by conjugation of the epsilon-amino group of the Lys side chain with (2-[2-(2-amino-ethoxy)-ethoxy]-acetyl)2-(gamma-Glu)-CO-(CH2)18- CO2H; (20)..(20) Xaa at position 20 is Aib; (28)..(28) Xaa at position 28 is D-Glu; MOD_RES (39)..(39) Ser at position 39 is amidated) [Peptide 83]  4.84
4. Y-Aib-EGTFTSDYSILLDKK((2-[2-(2-Amino-ethoxy)-ethoxy]-acetyl)2-(γGlu)-CO—(CH2)18—CO2H)AQ-Aib-AFIEYLIEGG-NH2 (Y[Aib]EGTFTSDYSILLDKK([AEEA-AEEA-γGlu-C20 diacid])AQ[Aib]AFIEYLIEGG-NH2; N-terminus assumed; SMILES CC[C@H](C)[C@H](NC(=O)[C@H](CC(C)C)NC(=O)[C@H](Cc1ccc(O)cc1)NC(=O)[C@H](CCC(=O)O)NC(=O)[C@@H](NC(=O)[C@H](Cc1ccccc1)NC(=O)[C@H](C)NC(=O)C(C)(C)NC(=O)[C@H](CCC(N)=O)NC(=O)[C@H](C)NC(=O)[C@H](CCCCNC(=O)COCCOCCNC(=O)COCCOCCNC(=O)CC[C@H](NC(=O)CCCCCCCCCCCCCCCCCCC(=O)O)C(=O)O)NC(=O)[C@H](CCCCN)NC(=O)[C@H](CC(=O)O)NC(=O)[C@H](CC(C)C)NC(=O)[C@H](CC(C)C)NC(=O)[C@@H](NC(=O)[C@H](CO)NC(=O)[C@H](Cc1ccc(O)cc1)NC(=O)[C@H](CC(=O)O)NC(=O)[C@H](CO)NC(=O)[C@@H](NC(=O)[C@H](Cc1ccccc1)NC(=O)[C@@H](NC(=O)CNC(=O)[C@H](CCC(=O)O)NC(=O)C(C)(C)NC(=O)[C@@H](N)Cc1ccc(O)cc1)[C@@H](C)O)[C@@H](C)O)[C@@H](C)CC)[C@@H](C)CC)C(=O)N[C@@H](CCC(=O)O)C(=O)NCC(=O)NCC(N)=O) [Peptide 51]  3.97
5. Y-Aib-EGTFTSDYSILLDKK((2-[2-(2-Amino-ethoxy)-ethoxy]-acetyl)2-(γGlu)-CO—(CH2)18—CO2H)AQ-Aib-AFIEYLIEGGPSSG-NH2 (Y[Aib]EGTFTSDYSILLDKK([AEEA-AEEA-γGlu-C20 diacid])AQ[Aib]AFIEYLIEGGPSSG-NH2; N-terminus assumed; SMILES CC[C@H](C)[C@H](NC(=O)[C@H](CC(C)C)NC(=O)[C@H](Cc1ccc(O)cc1)NC(=O)[C@H](CCC(=O)O)NC(=O)[C@@H](NC(=O)[C@H](Cc1ccccc1)NC(=O)[C@H](C)NC(=O)C(C)(C)NC(=O)[C@H](CCC(N)=O)NC(=O)[C@H](C)NC(=O)[C@H](CCCCNC(=O)COCCOCCNC(=O)COCCOCCNC(=O)CC[C@H](NC(=O)CCCCCCCCCCCCCCCCCCC(=O)O)C(=O)O)NC(=O)[C@H](CCCCN)NC(=O)[C@H](CC(=O)O)NC(=O)[C@H](CC(C)C)NC(=O)[C@H](CC(C)C)NC(=O)[C@@H](NC(=O)[C@H](CO)NC(=O)[C@H](Cc1ccc(O)cc1)NC(=O)[C@H](CC(=O)O)NC(=O)[C@H](CO)NC(=O)[C@@H](NC(=O)[C@H](Cc1ccccc1)NC(=O)[C@@H](NC(=O)CNC(=O)[C@H](CCC(=O)O)NC(=O)C(C)(C)NC(=O)[C@@H](N)Cc1ccc(O)cc1)[C@@H](C)O)[C@@H](C)O)[C@@H](C)CC)[C@@H](C)CC)C(=O)N[C@@H](CCC(=O)O)C(=O)NCC(=O)NCC(=O)N1CCC[C@H]1C(=O)N[C@@H](CO)C(=O)N[C@@H](CO)C(=O)NCC(N)=O) [Peptide 50]  2.90
